# Measured values taken from publication PMC6517591.
# Biological target: Human FcRn (neonatal Fc-receptor), C-terminally biotinylated (human) (UniProt P55899)
# Assay: SPR; pH 6.0
row,Substance,Kd
1,GDob1 IgG1 (from UniProt P01857),23.7 nM
2,GDob1 IgG1ΔG236 (from UniProt P01857),25 nM
3,GDob1 IgG2 (from UniProt P01859),39 nM
4,GDob1 IgG2 + G236 (from UniProt P01859),41.8 nM
